From paper PMC7095019 come the findings set out here.

This assay has as its target H1 A/New Caledonia/20/1999 haemagglutinin, wild-type trimeric protein (influenza A virus A/New Caledonia/20/1999 (H1N1)) (UniProt Q6WG00). In words: ELISA. (In an ELISA, binding on a coated surface is turned into a signal by an enzyme label.)

On to “CR6261 inferred germline antibody, germline heavy and germline light chain, soluble IgG”, for which the ELISA endpoint dilution titre is > 100 µg/mL.
Substance “CR6261 somatic (mature) antibody, somatic heavy and somatic light chain, soluble IgG” registered an ELISA endpoint dilution titre of 0.00133 µg/mL.
